Data taken from patent US20260209386A1 (MYTHIC THERAPEUTICS, published 2026).

T1: Human PTK7 (human, UniProt Q13308 31-1070)
T1 sequence: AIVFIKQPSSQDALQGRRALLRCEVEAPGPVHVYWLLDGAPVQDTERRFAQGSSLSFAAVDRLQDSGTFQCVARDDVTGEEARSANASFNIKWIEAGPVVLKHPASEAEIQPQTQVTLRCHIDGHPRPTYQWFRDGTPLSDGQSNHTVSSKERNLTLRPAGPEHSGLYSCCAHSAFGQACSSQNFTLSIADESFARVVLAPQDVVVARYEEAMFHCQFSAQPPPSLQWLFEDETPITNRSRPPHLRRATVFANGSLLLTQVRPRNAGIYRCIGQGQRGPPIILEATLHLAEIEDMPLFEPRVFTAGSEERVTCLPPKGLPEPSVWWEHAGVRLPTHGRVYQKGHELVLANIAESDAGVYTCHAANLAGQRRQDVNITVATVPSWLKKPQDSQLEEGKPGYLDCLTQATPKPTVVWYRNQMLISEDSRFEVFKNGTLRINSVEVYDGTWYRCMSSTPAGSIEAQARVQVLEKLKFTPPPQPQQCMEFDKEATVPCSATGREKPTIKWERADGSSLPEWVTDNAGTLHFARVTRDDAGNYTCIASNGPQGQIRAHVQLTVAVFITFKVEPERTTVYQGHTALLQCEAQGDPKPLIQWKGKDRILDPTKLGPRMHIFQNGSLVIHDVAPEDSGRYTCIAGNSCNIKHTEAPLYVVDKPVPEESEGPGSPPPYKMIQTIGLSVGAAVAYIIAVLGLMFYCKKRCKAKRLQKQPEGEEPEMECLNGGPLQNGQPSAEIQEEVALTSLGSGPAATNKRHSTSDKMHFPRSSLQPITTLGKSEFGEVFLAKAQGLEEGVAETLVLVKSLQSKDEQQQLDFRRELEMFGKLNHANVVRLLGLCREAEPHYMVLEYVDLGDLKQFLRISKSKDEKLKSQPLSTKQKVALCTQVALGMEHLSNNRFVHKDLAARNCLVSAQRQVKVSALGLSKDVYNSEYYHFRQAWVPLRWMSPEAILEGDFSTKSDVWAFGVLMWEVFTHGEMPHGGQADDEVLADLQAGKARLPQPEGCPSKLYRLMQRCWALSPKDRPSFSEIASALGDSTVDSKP


The binders below were run against T1, Human PTK7 (assay: cell-based or functional assay).

| Binder | Internalization, FOW @ 25 nM (fold over the wildtype, parental antibody) |
| --- | --- |
| MYT11297 (antibody, V domains shown) VH: EVQLVESGGGLVQPGGSLRLSCTASGIDLSRYSMGWVRQAPGKGLEWVGIISYGGSTYYASWAKGRFTISRDTSKNTVYLQMNSLRAEDTAVYFCARVGYPGYSGYGYAFDAHDPWGQGTLVTVSS VL: EIVMTQSPSTLSASVGDRVIITCQSSKSVYNDNWLSWYQQKPGKAPKLLIYGASTLASGVPSRFSGSGSGAEFTLTISSLQPDDFATYYCAGGYSSSSDNGFGQGTKLTVL | 1.51 fold over parental antibody |
| MYT11307 (antibody, V domains shown) VH: EVQLVESGGGLVQPGGSLRLSCTASGIDLSRYSMGWVRQAPGKGLEWVGIISYGGSTYYASWAKGRFTISRDTSKNTVYLQMNSLRAEDTAVYFCARVGYPGYSGYGYAFDAFDPWGQGTLVTVSS VL: EIVMTQSPSTLSASVGDRVIITCQSSHSVYNDNWLSWYQQKPGKAPKLLIYGASTLASGVPSRFSGSGSGAEFTLTISSLQPDDFATYYCAGGYSSSSDNGFGQGTKLTVL | 1.82 fold over parental antibody |
| MYT11305 (antibody, V domains shown) VH: EVQLVESGGGLVQPGGSLRLSCTASGIDLSRYSMGWVRQAPGKGLEWVGIISYGGSTYYASWAKGRFTISRDTSKNTVYLQMNSLRAEDTAVYFCARVGYPGYSGYGYAFDAFDPWGQGTLVTVSS VL: EIVMTQSPSTLSASVGDRVIITCQHSKSVYNDNWLSWYQQKPGKAPKLLIYGASTLASGVPSRFSGSGSGAEFTLTISSLQPDDFATYYCAGGYSSSSDNGFGQGTKLTVL | 1.37 fold over parental antibody |
| MYT11303 (antibody, V domains shown) VH: EVQLVESGGGLVQPGGSLRLSCTASGIDLSRYSMGWVRQAPGKGLEWVGIISYGGSTYYASWAKGRFTISRDTSKNTVYLQMNSLRAEDTAVYFCARVGYPGYSGYGYAFDAFAPWGQGTLVTVSS VL: EIVMTQSPSTLSASVGDRVIITCQSSKSVYNDNWLSWYQQKPGKAPKLLIYGASTLASGVPSRFSGSGSGAEFTLTISSLQPDDFATYYCAGGYSSSSDNGFGQGTKLTVL | 1.51 fold over parental antibody |
| MYT11315 (antibody, V domains shown) VH: EVQLVESGGGLVQPGGSLRLSCTASGIDLSRYSMGWVRQAPGKGLEWVGIISYGGSTYYASWAKGRFTISRDTSKNTVYLQMNSLRAEDTAVYFCARVGYPGYSGYGYAFDAFDPWGQGTLVTVSS VL: EIVMTQSPSTLSASVGDRVIITCQSSKSVYNDNWHSWYQQKPGKAPKLLIYGASTLASGVPSRFSGSGSGAEFTLTISSLQPDDFATYYCAGGYSSSSDNGFGQGTKLTVL | 1.51 fold over parental antibody |
| MYT11316 (antibody, V domains shown) VH: EVQLVESGGGLVQPGGSLRLSCTASGIDLSRYSMGWVRQAPGKGLEWVGIISYGGSTYYASWAKGRFTISRDTSKNTVYLQMNSLRAEDTAVYFCARVGYPGYSGYGYAFDAFDPWGQGTLVTVSS VL: EIVMTQSPSTLSASVGDRVIITCQSSKSVYNDNWLHWYQQKPGKAPKLLIYGASTLASGVPSRFSGSGSGAEFTLTISSLQPDDFATYYCAGGYSSSSDNGFGQGTKLTVL | 1.55 fold over parental antibody |
| MYT11321 (antibody, V domains shown) VH: EVQLVESGGGLVQPGGSLRLSCTASGIDLSRYSMGWVRQAPGKGLEWVGIISYGGSTYYASWAKGRFTISRDTSKNTVYLQMNSLRAEDTAVYFCARVGYPGYSGYGYAFDAFDPWGQGTLVTVSS VL: EIVMTQSPSTLSASVGDRVIITCQSSKSVYNDNWLSWYQQKPGKAPKLLIYGASTHASGVPSRFSGSGSGAEFTLTISSLQPDDFATYYCAGGYSSSSDNGFGQGTKLTVL | 1.36 fold over parental antibody |
| MYT11310 (antibody, V domains shown) VH: EVQLVESGGGLVQPGGSLRLSCTASGIDLSRYSMGWVRQAPGKGLEWVGIISYGGSTYYASWAKGRFTISRDTSKNTVYLQMNSLRAEDTAVYFCARVGYPGYSGYGYAFDAFDPWGQGTLVTVSS VL: EIVMTQSPSTLSASVGDRVIITCQSSKSVHNDNWLSWYQQKPGKAPKLLIYGASTLASGVPSRFSGSGSGAEFTLTISSLQPDDFATYYCAGGYSSSSDNGFGQGTKLTVL | 1.64 fold over parental antibody |

Now from value to binder:

| Internalization, FOW @ 25 nM (fold over the wildtype, parental antibody) | Binder |
| --- | --- |
| 1.99 fold over parental antibody | MYT11328 (antibody, V domains shown) VH: EVQLVESGGGLVQPGGSLRLSCTASGIDLSRYSMGWVRQAPGKGLEWVGIISYGGSTYYASWAKGRFTISRDTSKNTVYLQMNSLRAEDTAVYFCARVGYPGYSGYGYAFDAFDPWGQGTLVTVSS VL: EIVMTQSPSTLSASVGDRVIITCQSSKSVYNDNWLSWYQQKPGKAPKLLIYGASTLASGVPSRFSGSGSGAEFTLTISSLQPDDFATYYCAGGYHSSSDNGFGQGTKLTVL |
| 1.29 fold over parental antibody | MYT11326 (antibody, V domains shown) VH: EVQLVESGGGLVQPGGSLRLSCTASGIDLSRYSMGWVRQAPGKGLEWVGIISYGGSTYYASWAKGRFTISRDTSKNTVYLQMNSLRAEDTAVYFCARVGYPGYSGYGYAFDAFDPWGQGTLVTVSS VL: EIVMTQSPSTLSASVGDRVIITCQSSKSVYNDNWLSWYQQKPGKAPKLLIYGASTLASGVPSRFSGSGSGAEFTLTISSLQPDDFATYYCAGHYSSSSDNGFGQGTKLTVL |
| 1.58 fold over parental antibody | MYT11324 (antibody, V domains shown) VH: EVQLVESGGGLVQPGGSLRLSCTASGIDLSRYSMGWVRQAPGKGLEWVGIISYGGSTYYASWAKGRFTISRDTSKNTVYLQMNSLRAEDTAVYFCARVGYPGYSGYGYAFDAFDPWGQGTLVTVSS VL: EIVMTQSPSTLSASVGDRVIITCQSSKSVYNDNWLSWYQQKPGKAPKLLIYGASTLASGVPSRFSGSGSGAEFTLTISSLQPDDFATYYCHGGYSSSSDNGFGQGTKLTVL |
| 1.77 fold over parental antibody | MYT11332 (antibody, V domains shown) VH: EVQLVESGGGLVQPGGSLRLSCTASGIDLSRYSMGWVRQAPGKGLEWVGIISYGGSTYYASWAKGRFTISRDTSKNTVYLQMNSLRAEDTAVYFCARVGYPGYSGYGYAFDAFDPWGQGTLVTVSS VL: EIVMTQSPSTLSASVGDRVIITCQSSKSVYNDNWLSWYQQKPGKAPKLLIYGASTLASGVPSRFSGSGSGAEFTLTISSLQPDDFATYYCAGGYSSSSHNGFGQGTKLTVL |
| 1.77 fold over parental antibody | MYT11331 (antibody, V domains shown) VH: EVQLVESGGGLVQPGGSLRLSCTASGIDLSRYSMGWVRQAPGKGLEWVGIISYGGSTYYASWAKGRFTISRDTSKNTVYLQMNSLRAEDTAVYFCARVGYPGYSGYGYAFDAFDPWGQGTLVTVSS VL: EIVMTQSPSTLSASVGDRVIITCQSSKSVYNDNWLSWYQQKPGKAPKLLIYGASTLASGVPSRFSGSGSGAEFTLTISSLQPDDFATYYCAGGYSSSHDNGFGQGTKLTVL |
| 1.6 fold over parental antibody | MYT11327 (antibody, V domains shown) VH: EVQLVESGGGLVQPGGSLRLSCTASGIDLSRYSMGWVRQAPGKGLEWVGIISYGGSTYYASWAKGRFTISRDTSKNTVYLQMNSLRAEDTAVYFCARVGYPGYSGYGYAFDAFDPWGQGTLVTVSS VL: EIVMTQSPSTLSASVGDRVIITCQSSKSVYNDNWLSWYQQKPGKAPKLLIYGASTLASGVPSRFSGSGSGAEFTLTISSLQPDDFATYYCAGGHSSSSDNGFGQGTKLTVL |
